Experimental data taken from patent publication US20230235080A1, “TROPHOBLAST CELL-SURFACE ANTIGEN-2 (TROP-2) ANTIBODIES” (Bionecure Therapeutics, Inc., priority 2020, published 2023).

Assays:
[1] = molecular target: T1, human Trop-2-ECD-6His fusion protein (human, UniProt P09758 27-274); assay: BLI (Octet), antibody at 8 ug/ml, human Trop-2ECD-6His at 3.125-50 nM
T1 construct: Expressed in a human 293 cell line; also called huTrop-2; human Trop-2 antigen
T1 sequence: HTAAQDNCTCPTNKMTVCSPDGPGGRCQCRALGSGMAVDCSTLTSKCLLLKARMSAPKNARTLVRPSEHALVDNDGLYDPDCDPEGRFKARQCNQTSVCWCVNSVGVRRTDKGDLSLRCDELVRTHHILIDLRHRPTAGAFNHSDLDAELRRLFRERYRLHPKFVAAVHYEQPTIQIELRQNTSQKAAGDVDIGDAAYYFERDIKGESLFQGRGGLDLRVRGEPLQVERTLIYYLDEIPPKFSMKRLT
Procedure: The binding affinity of the purified anti-Trop-2 IgGs to human Trop-2 protein were determined by Octet system based on Bio-Layer Interferometry (BLI) technique. BLI is a layer of molecules attached to the tip of an optic fiber which creates an interference pattern at the detector, any change in the number of molecules bound causes a measured shift in the pattern. Octet system enables real-time analysis for determination of affinity and kinetics from biomolecular interactions in 96-well microplates. […] A1X4 or A1,2X4 antibody was diluted and added to the assigned wells at a final concentration 8 µg/ml. The plate was put in the Octet system and assay was started. The data was analyzed using the Octet Data Acquisition Software (fortebio data analysis 10.0) to calculate an association rate constant Kon, a dissociation rate constant Koff, and a dissociation constant Kd (Kd = Koff/Kon).

mouse Trop-2-His = molecular target: T2, mouse Trop-2-His (mouse, UniProt Q8BGV3 25-270); assay: ELISA on coated antigen, one antibody dilution (concentration not given), detected by GAH-HRP, OD450nm
T2 sequence (looked up): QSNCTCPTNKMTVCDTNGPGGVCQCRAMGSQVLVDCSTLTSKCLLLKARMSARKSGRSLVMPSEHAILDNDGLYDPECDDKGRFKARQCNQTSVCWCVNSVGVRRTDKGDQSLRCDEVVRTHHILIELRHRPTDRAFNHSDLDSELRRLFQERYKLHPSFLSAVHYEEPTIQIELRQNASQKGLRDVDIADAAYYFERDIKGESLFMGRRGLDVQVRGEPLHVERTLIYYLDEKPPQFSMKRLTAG
Procedure: (§1) The cross-reactivity of purified IgGs to the Trop-2 antigens from different species was tested by ELISA. In this experiment, a microtiter plate was coated overnight at 4° C. with 50 µL/well of 1 µg/mL human Trop-2ECD-6His, mouse Trop-2-His, cynomolgus Trop-2-His, human EPCAM-His, and a non-related protein. The plate was washed and blocked for 1 hr at 37° C., and then washed with wash buffer. Purified anti-Trop-2 antibodies appropriately diluted in PBS were added to wells and incubated for 1 hour at 37° C. After washing, bound antibodies were detected using HRP-conjugated goat-anti-human IgG antibody. Color development and absorbance at OD450 nm were read. A non-specific human IgG1 was included as a negative control, while hRS7 was used as a positive control.

human EPCAM-His = molecular target: T3, human EPCAM-His (human, UniProt P16422 24-265); assay: as above
T3 construct: also called hEPCAM
T3 sequence (looked up): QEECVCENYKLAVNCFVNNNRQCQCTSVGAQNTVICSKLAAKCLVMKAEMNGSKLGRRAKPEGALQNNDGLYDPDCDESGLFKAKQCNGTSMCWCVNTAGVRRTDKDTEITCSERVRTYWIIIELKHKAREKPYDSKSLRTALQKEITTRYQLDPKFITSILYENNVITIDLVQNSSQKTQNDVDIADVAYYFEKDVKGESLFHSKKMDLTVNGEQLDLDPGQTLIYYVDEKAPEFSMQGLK
Procedure: as §1

[2] = molecular target: T4, human Trop-2 on Trop-2 positive cancer cells (human, UniProt P09758 27-323); assay: flow cytometry on MDA-MB-468 cells, MFI at 4 °C against the antibody concentration (about 400 to 10000 ng/ml); Kd (µg/ml) printed beside the legend
T4 construct: Endogenous Trop-2 of human tumour cell lines
T4 sequence (looked up): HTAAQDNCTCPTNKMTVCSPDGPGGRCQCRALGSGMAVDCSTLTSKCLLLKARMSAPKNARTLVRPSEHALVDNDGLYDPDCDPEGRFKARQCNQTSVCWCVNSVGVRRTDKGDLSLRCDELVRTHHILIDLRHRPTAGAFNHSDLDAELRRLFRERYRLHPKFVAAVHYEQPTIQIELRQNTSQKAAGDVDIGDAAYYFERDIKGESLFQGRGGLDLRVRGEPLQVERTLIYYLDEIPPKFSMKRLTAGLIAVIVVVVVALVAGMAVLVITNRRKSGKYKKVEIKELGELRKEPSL
Procedure: Internalizationi and degradation of anti-Trop-2 antibodies was measured by flow cytometry. In this study, fluorescent-conjugated secondary antibodies were used to detect the primary antibodies left on after internalization.
Next, either hRS7, or A1X4, or A1,2X4 antibody was added to cells in FACS buffer at concentrations of 400, 1000, 3000, or 10000 ng/ml, respectively, and incubated for 30 minutes at 4° C. After incubation, the cells were washed three times with FACS buffer to removed unbound antibody. The cells were then incubated at 37° C. with 5% CO₂ for antibody internalization. After 2 hours, the cells were dissociated with Trypsin and stained with fluorescent-conjugated goat anti-human IgG secondary antibodies for 30 minutes on ice in dark before being analyzed using Beckman flow cytometry system. The fluorescent intensity and cell binding percentage at each time point were analyzed by Beckman flow cytometric software. The amount of anti-Trop-2 antibodies internalized into cells at each concentration was determined using the following formula: % internalization rate = 100 × (MFI₄°C- MFI₃₇°C) / MFI₄°C

B1: humanized IgG A1,2X4 (antibody, V domains shown)
VH: QVQLQESGPGLVKPSETLSLTCTVSGFSLTSYGVNWIRQPPGKGLEWIGVMWAGGSTNYNSALMSRLTISKDTSKNQFSLKLSSVTAADTAVYYCARDENWDGAWFAYWGQGTLVTVSS
VL: DIVMTQSPDSLAVSLGERATINCKSSQSLLNSGTRKNYLAWYQQKPGQPPKLLISWASSRESGVPDRFSGSGSGTDFTLTISSLQAEDVAVYYCKQSYNLFTFGGGTKVEIKR
notes: Full-length IgG expressed in 293 cells; also called IgG HuA(1,2)/Lu(X4)
Q: What does the source list for B1?
A: Kd [1]: 4.09 nM; koff [1]: 0.000844 s⁻¹; binding result (mouse Trop-2-His): no binding; binding result (human EPCAM-His): no binding; Kd [2]: 0.93 µg/mL
